T1: G9a and GLP (Homo sapiens, UniProt Q96KQ7+Q9H9B1)
T1 sequence (Q96KQ7 2-1210 limits assumed): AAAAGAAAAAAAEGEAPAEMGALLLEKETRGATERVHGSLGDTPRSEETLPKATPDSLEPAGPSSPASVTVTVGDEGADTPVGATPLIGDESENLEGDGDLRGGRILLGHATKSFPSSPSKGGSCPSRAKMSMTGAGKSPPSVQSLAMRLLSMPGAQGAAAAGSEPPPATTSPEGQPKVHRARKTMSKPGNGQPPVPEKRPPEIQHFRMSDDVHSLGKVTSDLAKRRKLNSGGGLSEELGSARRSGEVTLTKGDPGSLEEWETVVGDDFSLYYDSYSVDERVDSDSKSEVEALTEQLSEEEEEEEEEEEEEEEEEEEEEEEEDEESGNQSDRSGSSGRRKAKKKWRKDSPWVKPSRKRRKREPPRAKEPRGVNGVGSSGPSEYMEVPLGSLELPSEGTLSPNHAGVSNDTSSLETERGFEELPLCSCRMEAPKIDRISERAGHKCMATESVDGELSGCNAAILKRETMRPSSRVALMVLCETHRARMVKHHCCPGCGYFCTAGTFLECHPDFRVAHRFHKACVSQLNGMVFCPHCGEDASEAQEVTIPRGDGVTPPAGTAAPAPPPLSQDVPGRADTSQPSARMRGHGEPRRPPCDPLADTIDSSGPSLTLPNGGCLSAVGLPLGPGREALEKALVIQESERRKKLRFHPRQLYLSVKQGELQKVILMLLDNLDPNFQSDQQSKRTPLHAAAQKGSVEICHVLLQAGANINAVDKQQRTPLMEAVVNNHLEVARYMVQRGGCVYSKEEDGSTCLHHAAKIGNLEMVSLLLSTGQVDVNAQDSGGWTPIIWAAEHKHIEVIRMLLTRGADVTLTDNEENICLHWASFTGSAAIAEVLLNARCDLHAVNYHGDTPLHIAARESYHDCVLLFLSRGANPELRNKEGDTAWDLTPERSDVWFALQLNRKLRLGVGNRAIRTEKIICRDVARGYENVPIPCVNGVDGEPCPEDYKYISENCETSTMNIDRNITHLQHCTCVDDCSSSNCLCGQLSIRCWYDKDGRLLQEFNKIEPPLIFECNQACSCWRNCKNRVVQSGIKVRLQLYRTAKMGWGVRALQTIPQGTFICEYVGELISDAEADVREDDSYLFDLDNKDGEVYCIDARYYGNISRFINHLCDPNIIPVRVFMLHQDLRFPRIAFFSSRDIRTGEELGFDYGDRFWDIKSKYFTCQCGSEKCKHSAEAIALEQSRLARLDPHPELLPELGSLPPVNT
T1 sequence (Q9H9B1 2-1298 limits assumed): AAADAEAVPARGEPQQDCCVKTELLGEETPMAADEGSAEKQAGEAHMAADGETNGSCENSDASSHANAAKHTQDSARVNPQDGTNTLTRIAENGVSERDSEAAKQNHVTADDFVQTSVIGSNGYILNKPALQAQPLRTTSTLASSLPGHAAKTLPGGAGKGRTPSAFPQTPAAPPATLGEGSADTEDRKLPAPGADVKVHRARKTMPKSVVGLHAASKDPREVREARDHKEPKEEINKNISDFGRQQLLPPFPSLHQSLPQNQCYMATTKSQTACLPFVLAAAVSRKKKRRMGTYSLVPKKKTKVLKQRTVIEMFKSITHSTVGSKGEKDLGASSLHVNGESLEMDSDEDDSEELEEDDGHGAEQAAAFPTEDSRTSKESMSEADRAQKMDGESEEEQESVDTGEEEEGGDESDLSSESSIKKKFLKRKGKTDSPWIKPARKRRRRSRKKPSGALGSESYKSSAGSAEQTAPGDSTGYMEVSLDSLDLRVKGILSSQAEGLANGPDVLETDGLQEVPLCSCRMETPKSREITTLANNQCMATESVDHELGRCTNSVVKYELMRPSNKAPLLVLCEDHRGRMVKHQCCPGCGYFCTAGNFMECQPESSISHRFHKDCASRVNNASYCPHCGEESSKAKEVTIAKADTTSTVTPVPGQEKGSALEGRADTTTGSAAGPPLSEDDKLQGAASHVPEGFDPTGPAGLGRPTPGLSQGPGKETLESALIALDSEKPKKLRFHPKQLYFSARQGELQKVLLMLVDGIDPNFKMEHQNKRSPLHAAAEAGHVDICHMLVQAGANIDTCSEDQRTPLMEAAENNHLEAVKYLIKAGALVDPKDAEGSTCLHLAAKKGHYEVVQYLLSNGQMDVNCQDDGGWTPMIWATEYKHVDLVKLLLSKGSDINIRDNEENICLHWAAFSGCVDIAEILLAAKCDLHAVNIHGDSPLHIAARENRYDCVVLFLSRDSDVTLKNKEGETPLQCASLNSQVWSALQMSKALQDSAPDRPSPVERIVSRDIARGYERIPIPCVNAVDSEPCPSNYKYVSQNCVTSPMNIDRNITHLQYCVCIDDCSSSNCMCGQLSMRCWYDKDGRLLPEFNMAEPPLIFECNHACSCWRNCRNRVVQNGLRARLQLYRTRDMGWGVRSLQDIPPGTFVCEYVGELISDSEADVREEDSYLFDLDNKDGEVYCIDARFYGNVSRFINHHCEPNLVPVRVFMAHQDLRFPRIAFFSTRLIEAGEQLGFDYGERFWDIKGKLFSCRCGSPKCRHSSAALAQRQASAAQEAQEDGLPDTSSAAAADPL

B1: API5 (protein, UniProt Q9BZZ5 2-524, looked up)
Apoptosis inhibitor 5: PTVEELYRNYGILADATEQVGQHKDAYQVILDGVKGGTKEKRLAAQFIPKFFKHFPELADSAINAQLDLCEDEDVSIRRQAIKELPQFATGENLPRVADILTQLLQTDDSAEFNLVNNALLSIFKMDAKGTLGGLFSQILQGEDIVRERAIKFLSTKLKTLPDEVLTKEVEELILTESKKVLEDVTGEEFVLFMKILSGLKSLQTVSGRQQLVELVAEQADLEQTFNPSDPDCVDRLLQCTRQAVPLFSKNVHSTRFVTYFCEQVLPNLGTLTTPVEGLDIQLEVLKLLAEMSSFCGDMEKLETNLRKLFDKLLEYMPLPPEEAENGENAGNEEPKLQFSYVECLLYSFHQLGRKLPDFLTAKLNAEKLKDFKIRLQYFARGLQVYIRQLRLALQGKTGEALKTEENKIKVVALKITNNINVLIKDLFHIPPSYKSTVTLSWKPVQKVEIGQKRASEDTTSGSPPKKSSAGPKRDARQIYNPPSGKYSSNLGNFNYEQRGAFRGSRGGRGWGTRGNRSRGRLY
B2: ZNF326 (protein, UniProt Q5BKZ1 1-582, looked up)
DBIRD complex subunit ZNF326: MDFEDDYTHSACRNTYQGFNGMDRDYGPGSYGGMDRDYGHGSYGGQRSMDSYLNQSYGMDNHSGGGGGSRFGPYESYDSRSSLGGRDLYRSGYGFNEPEQSRFGGSYGGRFESSYRNSLDSFGGRNQGGSSWEAPYSRSKLRPGFMEDRGRENYSSYSSFSSPHMKPAPVGSRGRGTPAYPESTFGSRNYDAFGGPSTGRGRGRGHMGDFGSIHRPGIVVDYQNKSTNVTVAAARGIKRKMMQPFNKPSGTFIKKPKLAKPMEKISLSKSPTKTDPKNEEEEKRRIEARREKQRRRREKNSEKYGDGYRMAFTCSFCKFRTFEEKDIELHLESSSHQETLDHIQKQTKFDKVVMEFLHECMVNKFKKTSIRKQQTNNQTEVVKIIEKDVMEGVTVDDHMMKVETVHCSACSVYIPALHSSVQQHLKSPDHIKGKQAYKEQIKRESVLTATSILNNPIVKARYERFVKGENPFEIQDHSQDQQIEGDEEDEEKIDEPIEEEEDEDEEEEAEEVGEVEEVEEVEEVREGGIEGEGNIQGVGEGGEVGVVGEVEGVGEVEEVEELEEETAKEEPADFPVEQPEEN
B3: SRP19 (protein, UniProt P09132 1-144, looked up)
Signal recognition particle …: MACAAARSPADQDRFICIYPAYLNNKKTIAEGRRIPISKAVENPTATEIQDVCSAVGLNVFLEKNKMYSREWNRDVQYRGRVRVQLKQEDGSLCLVQFPSRKSVMLYAAEMIPKLKTRTQKTGGADQSLQQGEGSKKGKGKKKK
B4: SYNCRIP (protein, UniProt O60506 2-623, looked up)
Heterogeneous nuclear …: ATEHVNGNGTEEPMDTTSAVIHSENFQTLLDAGLPQKVAEKLDEIYVAGLVAHSDLDERAIEALKEFNEDGALAVLQQFKDSDLSHVQNKSAFLCGVMKTYRQREKQGTKVADSSKGPDEAKIKALLERTGYTLDVTTGQRKYGGPPPDSVYSGQQPSVGTEIFVGKIPRDLFEDELVPLFEKAGPIWDLRLMMDPLTGLNRGYAFVTFCTKEAAQEAVKLYNNHEIRSGKHIGVCISVANNRLFVGSIPKSKTKEQILEEFSKVTEGLTDVILYHQPDDKKKNRGFCFLEYEDHKTAAQARRRLMSGKVKVWGNVGTVEWADPIEDPDPEVMAKVKVLFVRNLANTVTEEILEKAFSQFGKLERVKKLKDYAFIHFDERDGAVKAMEEMNGKDLEGENIEIVFAKPPDQKRKERKAQRQAAKNQMYDDYYYYGPPHMPPPTRGRGRGGRGGYGYPPDYYGYEDYYDYYGYDYHNYRGGYEDPYYGYEDFQVGARGRGGRGARGAAPSRGRGAAPPRGRAGYSQRGGPGSARGVRGARGGAQQQRGRGVRGARGGRGGNVGGKRKADGYNQPDSKRRQTNNQNWGSQPIAQQPLQGGDHSGNYGYKSENQEFYQDTFGQQWK
B5: HNRNPA0 (protein, UniProt Q13151 1-305, looked up)
Heterogeneous nuclear …: MENSQLCKLFIGGLNVQTSESGLRGHFEAFGTLTDCVVVVNPQTKRSRCFGFVTYSNVEEADAAMAASPHAVDGNTVELKRAVSREDSARPGAHAKVKKLFVGGLKGDVAEGDLIEHFSQFGTVEKAEIIADKQSGKKRGFGFVYFQNHDAADKAAVVKFHPIQGHRVEVKKAVPKEDIYSGGGGGGSRSSRGGRGGRGRGGGRDQNGLSKGGGGGYNSYGGYGGGGGGGYNAYGGGGGGSSYGGSDYGNGFGGFGSYSQHQSSYGPMKSGGGGGGGGSSWGGRSNSGPYRGGYGGGGGYGGSSF
B6: KIN (protein, UniProt O60870 1-393, looked up)
DNA/RNA-binding protein KIN17: MGKSDFLTPKAIANRIKSKGLQKLRWYCQMCQKQCRDENGFKCHCMSESHQRQLLLASENPQQFMDYFSEEFRNDFLELLRRRFGTKRVHNNIVYNEYISHREHIHMNATQWETLTDFTKWLGREGLCKVDETPKGWYIQYIDRDPETIRRQLELEKKKKQDLDDEEKTAKFIEEQVRRGLEGKEQEVPTFTELSRENDEEKVTFNLSKGACSSSGATSSKSSTLGPSALKTIGSSASVKRKESSQSSTQSKEKKKKKSALDEIMEIEEEKKRTARTDYWLQPEIIVKIITKKLGEKYHKKKAIVKEVIDKYTAVVKMIDSGDKLKLDQTHLETVIPAPGKRILVLNGGYRGNEGTLESINEKTFSATIVIETGPLKGRRVEGIQYEDISKLA

test system: 3×MBT domain of L3MBTL1; experiment: Triple SILAC pull-down, 3xMBT/3xMBTD355N ratio (cytoplasmic, nuclear and chromatin fractions of 293T cells); type: binding, human; conditions: SILAC ratio, pull-down 3xMBT vs 3xMBTD355N; experiment with UNC0638 in heavy SILAC media;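 further: proteins quantified with MaxQuant, requiring at least two unique peptides and quantification in both label directions, normalized to the mean of proteins from a digested loading control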

| Molecule | 3xMBT/D355N UNC Heavy |
| --- | --- |
| B1 | 3.54 log base 2 |
| B2 | 3.01 log base 2 |
| B3 | 1.88 log base 2 |
| B4 | 2.28 log base 2 |
| B5 | 2.94 log base 2 |
| B6 | 2.85 log base 2 |

same assay, conditions: SILAC ratio, pull-down 3xMBT vs 3xMBTD355N; experiment with UNC0638 in light SILAC media

| Molecule | 3xMBT/D355N UNC Light |
| --- | --- |
| B1 | 2.67 log base 2 |
| B2 | 6.59 log base 2 |
| B3 | 2.14 log base 2 |
| B4 | 3.48 log base 2 |
| B5 | 3.80 log base 2 |
| B6 | 2.11 log base 2 |

biological target: T1, G9a and GLP; experiment: Triple SILAC pull-down after UNC0638 treatment of 293T cells, DMSO/UNC0638 ratio of protein captured by 3×MBT; type: cell-based; design: endogenous in cells; host or cells: HEK 293T; conditions: SILAC ratio DMSO/UNC0638 of protein pulled down with 3xMBT; UNC0638 in heavy SILAC media;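 further: mass spectrometry (Q-Exactive) SILAC quantitation, DMSO/UNC0638 ratio computed after subtracting 3×MBTD355N mutant pull-down background, only proteins with at least twofold 3×MBT over mutant signal considered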
Method: For UNC0638 treatments cells were treated for 24 hours with UNC0638 at 2.5 μM or DMSO vehicle control. One experiment treated cells in light media with UNC0638, the other treated cells in heavy media. Both experiments included cells in medium media treated with DMSO for negative control pull-down with 3×MBTD355N.
UNC0638 treatment experiments used a Q-Exactive mass spectrometer (ThermoFisher Scientific). A 25 cm HPLC column with 3 μm Reliasil (Orochem) was used to separate peptides over a 4 hour gradient from 0 to 75% acetonitrile. Ions were generated using a custom nanospray source flowing at 250 nL/minute. Mass spectrometry settings were 70,000 MS1 resolution, data dependent selection of up to 20 precursor ions per cycle, dynamic exclusion of 30 seconds and isolation window of 2 m/z.
For UNC0638 experiments the treated vs. untreated ratio was determined by subtracting the value from 3×MBTD355N prior to dividing values from the light and heavy channels. Only proteins showing a two-fold signal to background ratio (3×MBT/3×MBTD355N) were evaluated as potential G9a/GLP substrates.

| Relative to UNC0638 UNC Heavy | Molecule |
| --- | --- |
| 1.12 log base 2 | B1 |
| −0.02 log base 2 | B2 |
| −0.08 log base 2 | B3 |
| 0.14 log base 2 | B4 |
| 0.02 log base 2 | B5 |
| 0.35 log base 2 | B6 |

same assay, conditions: SILAC ratio DMSO/UNC0638 of protein pulled down with 3xMBT; UNC0638 in light SILAC media

| Relative to UNC0638 UNC Light | Molecule |
| --- | --- |
| 0.31 log base 2 | B1 |
| 0.33 log base 2 | B2 |
| 0.38 log base 2 | B3 |
| 0.17 log base 2 | B4 |
| 0.28 log base 2 | B5 |
| −0.04 log base 2 | B6 |

same assay, conditions: average of UNC Light and UNC Heavy experiments

| Relative to UNC0638 Average | Molecule |
| --- | --- |
| 0.71 log base 2 | B1 |
| 0.15 log base 2 | B2 |
| 0.15 log base 2 | B3 |
| 0.15 log base 2 | B4 |
| 0.15 log base 2 | B5 |
| 0.15 log base 2 | B6 |

same assay, conditions: reduced association with 3xMBT after UNC0638 treatment

| Candidate G9a/GLP target | Molecule |
| --- | --- |
| ✓ | B1 |
